Data published in patent US20040005550A1, “Methods and compositions useful for targeting activated vitronectin receptor alphavbeta3” (The Scripps Research Institute, priority 1998, published 2004).

Experiments:
[1] = target: T1, purified αvβ3 receptors from human placenta (human), P06756; test: ELISA on purified integrin; 2 mM RGDS against WOW-1 Fab
T1 chain 1: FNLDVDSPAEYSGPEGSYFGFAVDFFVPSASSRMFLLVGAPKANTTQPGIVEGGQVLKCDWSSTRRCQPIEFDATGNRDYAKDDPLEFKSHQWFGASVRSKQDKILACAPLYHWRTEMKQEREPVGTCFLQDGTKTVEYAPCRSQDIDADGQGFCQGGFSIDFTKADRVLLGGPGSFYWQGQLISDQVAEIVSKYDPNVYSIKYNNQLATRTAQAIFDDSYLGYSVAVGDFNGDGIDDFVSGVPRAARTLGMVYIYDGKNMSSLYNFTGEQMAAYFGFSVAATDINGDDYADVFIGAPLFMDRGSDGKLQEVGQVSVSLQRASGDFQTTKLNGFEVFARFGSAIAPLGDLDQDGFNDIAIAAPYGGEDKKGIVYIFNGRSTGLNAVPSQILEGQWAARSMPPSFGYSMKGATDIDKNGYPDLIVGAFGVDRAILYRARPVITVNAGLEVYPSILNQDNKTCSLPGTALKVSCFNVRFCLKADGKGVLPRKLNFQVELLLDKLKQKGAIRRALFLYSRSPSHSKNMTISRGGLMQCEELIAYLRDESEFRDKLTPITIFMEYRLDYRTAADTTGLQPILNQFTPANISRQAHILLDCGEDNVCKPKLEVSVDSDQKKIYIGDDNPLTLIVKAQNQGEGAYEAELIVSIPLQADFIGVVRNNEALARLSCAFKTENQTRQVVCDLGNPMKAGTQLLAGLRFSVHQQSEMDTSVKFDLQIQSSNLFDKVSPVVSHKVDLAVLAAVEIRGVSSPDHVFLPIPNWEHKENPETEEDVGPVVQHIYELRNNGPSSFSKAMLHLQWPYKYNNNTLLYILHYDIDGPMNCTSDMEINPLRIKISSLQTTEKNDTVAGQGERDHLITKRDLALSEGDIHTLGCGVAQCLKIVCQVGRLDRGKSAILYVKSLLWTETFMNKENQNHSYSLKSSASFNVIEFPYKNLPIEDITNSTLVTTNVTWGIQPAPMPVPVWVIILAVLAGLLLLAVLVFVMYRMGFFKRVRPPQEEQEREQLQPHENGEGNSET
T1 chain 2: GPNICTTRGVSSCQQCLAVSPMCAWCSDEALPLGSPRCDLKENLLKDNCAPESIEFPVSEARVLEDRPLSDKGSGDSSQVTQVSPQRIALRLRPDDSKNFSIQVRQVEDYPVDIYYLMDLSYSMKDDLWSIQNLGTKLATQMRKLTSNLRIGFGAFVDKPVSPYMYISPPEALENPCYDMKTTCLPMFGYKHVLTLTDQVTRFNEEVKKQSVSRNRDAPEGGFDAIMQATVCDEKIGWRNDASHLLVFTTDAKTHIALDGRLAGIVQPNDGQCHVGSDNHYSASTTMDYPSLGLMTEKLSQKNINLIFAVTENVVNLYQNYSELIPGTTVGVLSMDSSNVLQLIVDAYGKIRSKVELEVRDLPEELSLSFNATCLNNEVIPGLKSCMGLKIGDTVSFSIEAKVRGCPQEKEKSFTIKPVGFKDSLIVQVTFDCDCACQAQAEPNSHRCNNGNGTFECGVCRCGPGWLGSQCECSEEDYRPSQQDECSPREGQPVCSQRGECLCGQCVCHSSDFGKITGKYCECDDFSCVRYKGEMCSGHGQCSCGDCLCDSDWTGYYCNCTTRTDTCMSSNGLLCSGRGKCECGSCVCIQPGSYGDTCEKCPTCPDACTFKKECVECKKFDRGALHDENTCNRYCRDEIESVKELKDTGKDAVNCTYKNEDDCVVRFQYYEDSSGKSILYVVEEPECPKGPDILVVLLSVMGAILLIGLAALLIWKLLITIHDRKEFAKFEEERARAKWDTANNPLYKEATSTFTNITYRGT

[2] = target: T2, human αvβ3 integrin on cells (human), P06756; test: flow cytometry, AP5-treated αvβ3-CHO cells; 2 mM RGDS against WOW-1 Fab
T2 chain 1: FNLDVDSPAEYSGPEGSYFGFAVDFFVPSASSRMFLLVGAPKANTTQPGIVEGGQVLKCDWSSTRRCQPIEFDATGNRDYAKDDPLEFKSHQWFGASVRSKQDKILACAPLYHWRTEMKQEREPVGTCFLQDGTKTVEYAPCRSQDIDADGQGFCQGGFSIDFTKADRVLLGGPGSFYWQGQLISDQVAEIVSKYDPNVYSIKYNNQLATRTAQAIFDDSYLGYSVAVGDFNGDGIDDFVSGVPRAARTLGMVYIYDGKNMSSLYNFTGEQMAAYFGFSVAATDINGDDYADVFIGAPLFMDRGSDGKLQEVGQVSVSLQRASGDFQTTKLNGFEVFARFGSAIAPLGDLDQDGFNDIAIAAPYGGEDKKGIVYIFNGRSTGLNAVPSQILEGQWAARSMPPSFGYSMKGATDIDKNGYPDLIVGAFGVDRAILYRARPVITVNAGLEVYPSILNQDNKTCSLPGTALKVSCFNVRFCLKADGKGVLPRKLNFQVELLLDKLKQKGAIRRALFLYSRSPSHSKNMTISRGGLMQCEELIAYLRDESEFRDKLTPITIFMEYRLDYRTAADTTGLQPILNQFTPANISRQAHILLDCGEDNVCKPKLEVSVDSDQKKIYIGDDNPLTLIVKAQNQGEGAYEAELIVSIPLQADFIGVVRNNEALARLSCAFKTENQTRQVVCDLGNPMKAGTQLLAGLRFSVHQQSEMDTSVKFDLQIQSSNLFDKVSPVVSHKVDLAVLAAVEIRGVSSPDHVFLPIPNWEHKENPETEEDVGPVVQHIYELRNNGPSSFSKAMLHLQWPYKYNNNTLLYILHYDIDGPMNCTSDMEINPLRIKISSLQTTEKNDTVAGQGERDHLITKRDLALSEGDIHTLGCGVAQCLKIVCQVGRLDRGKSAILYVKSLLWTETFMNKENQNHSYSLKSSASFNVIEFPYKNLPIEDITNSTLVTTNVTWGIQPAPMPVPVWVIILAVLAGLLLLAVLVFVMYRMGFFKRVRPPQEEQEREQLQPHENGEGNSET
T2 chain 2: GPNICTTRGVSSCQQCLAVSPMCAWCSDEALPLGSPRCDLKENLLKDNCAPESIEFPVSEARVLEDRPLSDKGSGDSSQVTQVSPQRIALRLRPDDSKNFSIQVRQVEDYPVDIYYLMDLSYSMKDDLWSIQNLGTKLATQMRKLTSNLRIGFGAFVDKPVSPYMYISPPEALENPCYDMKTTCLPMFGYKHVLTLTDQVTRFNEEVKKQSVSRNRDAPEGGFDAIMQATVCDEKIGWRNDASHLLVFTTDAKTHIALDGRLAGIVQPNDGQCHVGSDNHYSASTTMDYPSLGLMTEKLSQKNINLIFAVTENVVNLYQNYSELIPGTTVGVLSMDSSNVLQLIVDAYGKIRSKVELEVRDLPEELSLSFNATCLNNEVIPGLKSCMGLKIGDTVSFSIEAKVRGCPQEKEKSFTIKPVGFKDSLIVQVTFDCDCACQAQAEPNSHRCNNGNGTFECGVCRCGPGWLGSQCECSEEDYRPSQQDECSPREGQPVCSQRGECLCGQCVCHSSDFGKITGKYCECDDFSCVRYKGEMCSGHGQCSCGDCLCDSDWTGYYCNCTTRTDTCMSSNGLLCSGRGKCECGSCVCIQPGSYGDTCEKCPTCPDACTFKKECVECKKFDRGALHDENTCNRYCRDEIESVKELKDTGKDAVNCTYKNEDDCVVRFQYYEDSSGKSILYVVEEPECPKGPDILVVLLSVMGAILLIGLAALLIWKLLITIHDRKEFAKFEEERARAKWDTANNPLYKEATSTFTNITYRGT

[3] = target: T2, human αvβ3 integrin on cells (human), …; test: flow cytometry, AP5-treated αvβ3-CHO cells; 2 mM RGDS against aPB

RGDS (modifications not checked)
percent inhibition of WOW-1 Fab binding [1]: > 95% | percent inhibition of WOW-1 Fab binding [2]: > 85% | percent inhibition of aPB binding [3]: > 85%
